In patent US20230212549A1 (3B PHARMACEUTICALS, published 2023):
Where “and” joins values, the source holds several entries; their conditions need not be identical. Identical values can stand only once. Numbered stars: 1 amine (or outer) side, 2 acyl side, 3 side chain; on linkers, the order of the positions; unused ones are H or OH. Bridge positions count the residues as written; N and C are the ends. Square brackets hold non-standard residues; d marks the D form. Primed or numbered codes have the meaning given here. * marks the point of attachment. tMeBn(DOTA-PP) = 1,3,5-trimethylbenzylidene, two thioethers to Cys, third CH2 bound to one N of piperazine whose other N bears DOTA, O=C(O)CN1CCN(CC(=O)O)CCN(CC(=O)N2CCN(Cc3cc(C[*:1])cc(C[*:2])c3)CC2)CCN(CC(=O)O)CC1; Ttds(6) = 1,13-Diamino-4,7,10-trioxatridecan-succinamic acid, O=C(CCC(=O)[*:2])NCCCOCCOCCOCCCN[*:1]; Ttds = 1,13-diamino-4,7,10-trioxatridecan-succinamic acid, O=C(CCC(=O)[*:2])NCCCOCCOCCOCCCN[*:1]; 3MeBn = 3-Methylbenzylidene (m-xylylene thioether bridge from α,α′-dibromo-m-xylene); N4Ac = 6-Carboxy-1,4,8,11-tetraazaundecane, an N4-chelator, NCCNCC(CNCCN)C(=O)*; APAc = 2-(4-(Amino)piperidin-1-yl)acetic acid, O=C(CN1CCC(N[*:1])CC1)[*:2]; 3MeBn(3) = 3-methylbenzylidene (m-xylylene), from α,α′-dibromo-m-xylene; DOTA = O=C(O)CN1CCN(CC(=O)O)CCN(CC(=O)*)CCN(CC(=O)O)CC1; γGlu = O=C(O)[C@H](CCC(=O)[*:2])N[*:1]; mXylylene = c1cc(C[*:1])cc(C[*:2])c1; Hyp = O=C(O)[C@@H]1C[C@@H](O)CN1; Nle = CCCC[C@H](N)C(=O)O; Octanoyl = CCCCCCCC(=O)*; Hexanoyl = CCCCCC(=O)*

B1: N4Ac-Ttds-Glu(AGLU′)-Nle-[Cys-(3MeBn)-Pro-Pro-Thr-Glu-Phe-Cys]-OH (peptide)
peptide: N4Ac-[Ttds(6)]E[Nle]CPPTEFC-OH
modifications: linker 4-10 via 3MeBn; not fully specified (residue 2); printed as N4Ac-Ttds-Glu(AGLU′)-Nle-[Cys-(3MeBn)-Pro-Pro-Thr-Glu-Phe-Cys]-OH
B2: Hex-[Cys(tMeBn(DOTA-PP))-Thr-Gln-Pro-Phe-Pro-Cys]-Asp-NH2 (peptide)
peptide: Hexanoyl-CTQPFPCD-NH2
modifications: linker 1-7 via tMeBn(DOTA-PP)
SMILES: CCCCCC(=O)N[C@H]1CSCc2cc(cc(CN3CCN(C(=O)CN4CCN(CC(=O)O)CCN(CC(=O)O)CCN(CC(=O)O)CC4)CC3)c2)CSC[C@@H](C(=O)N[C@@H](CC(=O)O)C(N)=O)NC(=O)[C@@H]2CCCN2C(=O)[C@H](Cc2ccccc2)NC(=O)[C@@H]2CCCN2C(=O)[C@H](CCC(N)=O)NC(=O)[C@H]([C@@H](C)O)NC1=O
B3: N4Ac-gGlu-Nle-[Cys-(3MeBn)-Pro-Pro-Thr-Glu-Phe-Cys]-OH (peptide)
peptide: N4Ac-[γGlu][Nle]CPPTEFC-OH
modifications: linker 3-9 via mXylylene
SMILES: CCCC[C@H](NC(=O)CC[C@H](NC(=O)C(CNCCN)CNCCN)C(=O)O)C(=O)N[C@H]1CSCc2cccc(c2)CSC[C@@H](C(=O)O)NC(=O)[C@H](Cc2ccccc2)NC(=O)[C@H](CCC(=O)O)NC(=O)[C@H]([C@@H](C)O)NC(=O)[C@@H]2CCCN2C(=O)[C@@H]2CCCN2C1=O
B4: Oct-[Cys(3MeBn)-Pro-Pro-Thr-Gln-Phe-Cys]-Asp-NH2 (peptide)
peptide: Octanoyl-CPPTQFCD-NH2
modifications: linker 1-7 via mXylylene
SMILES: CCCCCCCC(=O)N[C@H]1CSCc2cccc(c2)CSC[C@@H](C(=O)N[C@@H](CC(=O)O)C(N)=O)NC(=O)[C@H](Cc2ccccc2)NC(=O)[C@H](CCC(N)=O)NC(=O)[C@H]([C@@H](C)O)NC(=O)[C@@H]2CCCN2C(=O)[C@@H]2CCCN2C1=O
notes: also called 3BP-3417
B5: Ac-met-[Cys(tMeBn(DOTA-AET))-Pro-Pro-Thr-Gln-Phe-Cys]-OH (peptide)
peptide: MCPPTQFC
modifications: N-term acetyl; D-Met1; Cys2/Cys8 thioether-bridged by tMeBn carrying DOTA-AET; C-term free acid
notes: also called 3BP-3682
B6: Hex-[Cys(3MeBn)-Pro-Hyp-Thr-Glu-Phe-Cys]-NH2 (peptide)
peptide: Hexanoyl-CP[Hyp]TEFC-NH2
modifications: linker 1-7 via mXylylene
SMILES: CCCCCC(=O)N[C@H]1CSCc2cccc(c2)CSC[C@@H](C(N)=O)NC(=O)[C@H](Cc2ccccc2)NC(=O)[C@H](CCC(=O)O)NC(=O)[C@H]([C@@H](C)O)NC(=O)[C@@H]2C[C@@H](O)CN2C(=O)[C@@H]2CCCN2C1=O
notes: also called 3BP-3366
B7: DOTA-Ttds-Nle-[Cys(3MeBn)-Pro-Pro-Thr-Glu-Phe-Cys]-Asp-NH2 (peptide)
peptide: {DOTA}-[Ttds][Nle]CPPTEFCD-NH2
modifications: linker 3-9 via mXylylene
SMILES: CCCC[C@H](NC(=O)CCC(=O)NCCCOCCOCCOCCCNC(=O)CN1CCN(CC(=O)O)CCN(CC(=O)O)CCN(CC(=O)O)CC1)C(=O)N[C@H]1CSCc2cccc(c2)CSC[C@@H](C(=O)N[C@@H](CC(=O)O)C(N)=O)NC(=O)[C@H](Cc2ccccc2)NC(=O)[C@H](CCC(=O)O)NC(=O)[C@H]([C@@H](C)O)NC(=O)[C@@H]2CCCN2C(=O)[C@@H]2CCCN2C1=O
notes: also called 3BP-3320
B8: DOTA-Ttds-Nle-[Cys(3MeBn)-Pro-Pro-Thr-Glu-Phe-Cys]-NH2 (peptide)
peptide: {DOTA}-[Ttds][Nle]CPPTEFC-NH2
modifications: linker 3-9 via mXylylene
SMILES: CCCC[C@H](NC(=O)CCC(=O)NCCCOCCOCCOCCCNC(=O)CN1CCN(CC(=O)O)CCN(CC(=O)O)CCN(CC(=O)O)CC1)C(=O)N[C@H]1CSCc2cccc(c2)CSC[C@@H](C(N)=O)NC(=O)[C@H](Cc2ccccc2)NC(=O)[C@H](CCC(=O)O)NC(=O)[C@H]([C@@H](C)O)NC(=O)[C@@H]2CCCN2C(=O)[C@@H]2CCCN2C1=O
notes: also called 3BP-3319

What follows are binders tested against Recombinant human FAP (R&D systems, #3715-SE) (human, UniProt Q12884 26-760) (assay: cell-based or functional assay).

Binder	pIC50 Category (Activity) [pIC50]
B1	≤ 6
B2	≤ 6
N4Ac-[APAc][Nle]CPPTEFC-OH (linker 3-9 via 3MeBn(3)) [N4Ac-APAc-Nle-[Cys-(3MeBn)-Pro-Pro-Thr-Glu-Phe-Cys]-OH]	≤ 6
B3	≤ 6

Target: Recombinant human FAP (R&D systems, #3715-SE) (human, UniProt Q12884 26-760)
Assay: cell-based or functional assay
Remark: another data set of the same source

Binder	pIC50 Category (Activity)
B4	7.1 pIC50 and 8 pIC50
B5	7.1 pIC50 and 8 pIC50
B6	7.1 pIC50 and 8 pIC50
B7	> 8 pIC50
B8	7.1 pIC50 and 8 pIC50

Each binder was assayed against T1, fibroblast activation protein (FAP) on FAP-expressing human WI-38 fibroblasts (human, UniProt Q12884 1-760) (assay: competitive FACS, WI-38 cells, vs Cy5 tracer m3; B = pIC50 7.1-8.0).
T1 construct: also called human FAP

Binder	pIC50 Category (FACS)
B4	7.1 pIC50 and 8 pIC50
B5	7.1 pIC50 and 8 pIC50
B6	7.1 pIC50 and 8 pIC50
B7	7.1 pIC50 and 8 pIC50
B8	7.1 pIC50 and 8 pIC50
